Assay results published in article PMC7954794, “Protein context shapes the specificity of SH3 domain-mediated interactions in vivo” (Nature Communications, 2021).

System: Abp1 PPIs
Assay: DHFR-PCA of Abp1 SH3-swapped baits (Fig. 2B-D, S2C, S2F);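 on Protein-protein interaction distance between Abp1 SH3-swapped baits, to ABP1: Euclidean distance between DHFR-PCA score profiles of the baits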;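 on Protein-protein interaction distance between Abp1 SH3-swapped baits, to BEM1-2: Euclidean distance between DHFR-PCA score profiles of the baits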;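 on Protein-protein interaction distance between Abp1 SH3-swapped baits, to BOI1: Euclidean distance between DHFR-PCA score profiles of the baits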;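 on Protein-protein interaction distance between Abp1 SH3-swapped baits, to BZZ1-1: Euclidean distance between DHFR-PCA score profiles of the baits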
Type: cell-based, Saccharomyces cerevisiae
Method in brief: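 Interactions were scored by DHFR protein-fragment complementation. DHFR F[1,2]-tagged Abp1 strains, whose SH3 was swapped for yeast or human ortholog domains, were crossed on YPD at 30 °C for 48 h with a 1536-format array of 575 prey-DHFR F[3] strains and 40 negatives, giving four replicates per pair. PCA selection lasted 4 days after double diploid selection.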

[1] = number of PPIs, difference, Abp1 SH3-swapped with the listed SH3, Fig2D,S2F

B1: PEX13 (protein, UniProt P80667 1-386, looked up)
Peroxisomal membrane protein …: MSSTAVPRPKPWETSASLEEPQRNAQSLSAMMTSNQQDSRPTEESNNSNSASESAPEVLPRPAALNSSGTYGESNTIPGIYGNSNYGIPYDNNPYSMNSIYGNSIGRYGYGGSYYGNNYGSFYGGGYGAGAGYGMNNGSGLGESTKATFQLIESLIGAVTGFAQMLESTYMATHNSFFTMISVAEQFGNLKEMLGSFFGIFAIMKFLKKILYRATKGRLGIPPKNFAESEGSKNKLIEDFQKFNDSGTINSNEKATRRKISWKPLLFFLMAVFGFPYLLNKFITKLQTSGTIRASQGNGSEPIDPSKLEFARALYDFVPENPEMEVALKKGDLMAILSKKDPLGRDSDWWKVRTKNGNIGYIPYNYIEIIKRRKKIEHVDDETRTH
- Protein-protein interaction distance between Abp1 SH3-swapped baits, to ABP1 (Abp1 bait with swapped SH3, distance to bait with ABP1 SH3, sheet Fig2C): 10.96
- Protein-protein interaction distance between Abp1 SH3-swapped baits, to BBC1 (distance to Abp1 bait with BBC1 SH3, sheet Fig2C): 10.86
- Protein-protein interaction distance between Abp1 SH3-swapped baits, to BEM1-1 (distance to Abp1 bait with BEM1-1 SH3, sheet Fig2C): 16.62
- Protein-protein interaction distance between Abp1 SH3-swapped baits, to BEM1-2 (distance to Abp1 bait with BEM1-2 SH3, sheet Fig2C): 35.19
- Protein-protein interaction distance between Abp1 SH3-swapped baits, to BOI1 (distance to Abp1 bait with BOI1 SH3, sheet Fig2C): 13.22
- Protein-protein interaction distance between Abp1 SH3-swapped baits, to BOI2 (distance to Abp1 bait with BOI2 SH3, sheet Fig2C): 16.99
- Protein-protein interaction distance between Abp1 SH3-swapped baits, to BUD14 (distance to Abp1 bait with BUD14 SH3, sheet Fig2C): 19.91
- Protein-protein interaction distance between Abp1 SH3-swapped baits, to BZZ1-1 (distance to Abp1 bait with BZZ1-1 SH3, sheet Fig2C): 7.297
- Protein-protein interaction distance between Abp1 SH3-swapped baits, to BZZ1-2 (distance to Abp1 bait with BZZ1-2 SH3, sheet Fig2C): 13.09
- Protein-protein interaction distance between Abp1 SH3-swapped baits, to CDC25 (distance to Abp1 bait with CDC25 SH3, sheet Fig2C): 29.16
- Protein-protein interaction distance between Abp1 SH3-swapped baits, to CTTN (distance to Abp1 bait with CTTN SH3, sheet Fig2C): 14.16
- Protein-protein interaction distance between Abp1 SH3-swapped baits, to CYK3 (distance to Abp1 bait with CYK3 SH3, sheet Fig2C): 29.86
- Protein-protein interaction distance between Abp1 SH3-swapped baits, to DBNL (distance to Abp1 bait with DBNL SH3, sheet Fig2C): 7.699
- Protein-protein interaction distance between Abp1 SH3-swapped baits, to FUS1 (distance to Abp1 bait with FUS1 SH3, sheet Fig2C): 21.37
- Protein-protein interaction distance between Abp1 SH3-swapped baits, to HCLS1 (distance to Abp1 bait with HCLS1 SH3, sheet Fig2C): 8.5
- Protein-protein interaction distance between Abp1 SH3-swapped baits, to HOF1 (distance to Abp1 bait with HOF1 SH3, sheet Fig2C): 33.79
- Protein-protein interaction distance between Abp1 SH3-swapped baits, to HSE1 (distance to Abp1 bait with HSE1 SH3, sheet Fig2C): 8.715
- Protein-protein interaction distance between Abp1 SH3-swapped baits, to LSB1 (distance to Abp1 bait with LSB1 SH3, sheet Fig2C): 6.728
- Protein-protein interaction distance between Abp1 SH3-swapped baits, to LSB3 (distance to Abp1 bait with LSB3 SH3, sheet Fig2C): 7.361
- Protein-protein interaction distance between Abp1 SH3-swapped baits, to MYO3 (distance to Abp1 bait with MYO3 SH3, sheet Fig2C): 8.874
- Protein-protein interaction distance between Abp1 SH3-swapped baits, to MYO5 (distance to Abp1 bait with MYO5 SH3, sheet Fig2C): 7.969
- Protein-protein interaction distance between Abp1 SH3-swapped baits, to NBP2 (distance to Abp1 bait with NBP2 SH3, sheet Fig2C): 19.13
- Protein-protein interaction distance between Abp1 SH3-swapped baits, to PEX13 (distance to Abp1 bait with PEX13 SH3, sheet Fig2C): 0.00
- Protein-protein interaction distance between Abp1 SH3-swapped baits, to PIN3 (distance to Abp1 bait with PIN3 SH3, sheet Fig2C): 5.433
- Protein-protein interaction distance between Abp1 SH3-swapped baits, to RVS167 (distance to Abp1 bait with RVS167 SH3, sheet Fig2C): 4.587
- Protein-protein interaction distance between Abp1 SH3-swapped baits, to SDC25 (distance to Abp1 bait with SDC25 SH3, sheet Fig2C): 35.86
- Protein-protein interaction distance between Abp1 SH3-swapped baits, to SHO1 (distance to Abp1 bait with SHO1 SH3, sheet Fig2C): 8.672
- Protein-protein interaction distance between Abp1 SH3-swapped baits, to SLA1-1 (distance to Abp1 bait with SLA1-1 SH3, sheet Fig2C): 31.78
- Protein-protein interaction distance between Abp1 SH3-swapped baits, to SLA1-2 (distance to Abp1 bait with SLA1-2 SH3, sheet Fig2C): 21.86
- Protein-protein interaction distance between Abp1 SH3-swapped baits, to SLA1-3 (distance to Abp1 bait with SLA1-3 SH3, sheet Fig2C): 6.985
- Protein-protein interaction distance between Abp1 SH3-swapped baits, to YSC84 (distance to Abp1 bait with YSC84 SH3, sheet Fig2C): 7.848
- PPIs gained by Abp1 - SH3-dependent PPIs gained by Abp1 [1]: 23
- SH3-dependent PPIs - SH3-dependent PPIs gained by Abp1 [1]: 0
- SH3-dependent PPIs gained by Abp1 (number of PPIs, Abp1 SH3-swapped with the listed SH3, DHFR-PCA, Fig2D,S2F): 1
